Where no end group is shown, it is not given here.
Target: SARS-CoV-2 M^pro (Severe acute respiratory syndrome coronavirus 2, UniProt P0DTD1)
Test: biochemical
Assay type: biochemical
Conditions: for M^pro inhibition (%): 100 µM

| Molecule | M^pro inhibition (%) | further results |
| --- | --- | --- |
| Ac-Tβ4_17-43: peptide metabolite of Ac-Tβ4, amino acids 17-43 (LKKTETQEKNPLPSKETIEQEKQAGES; Thymosin beta-4; UniProt P62328 18-44, looked up, fragment) | 25.16 | – |
| Ac-Tβ4_31-43: peptide metabolite of Ac-Tβ4, amino acids 31-43 (KETIEQEKQAGES; Thymosin beta-4; UniProt P62328 32-44, looked up, fragment) | 1.88 | – |
| Ac-Tβ4_1-15: peptide metabolite of Ac-Tβ4, amino acids 1-15 (Ac-SDKPDMAEIEKFDKS) | 34.4 | – |
| CC[C@H](C)[C@H](NC(=O)[C@H](CCC(=O)O)NC(=O)[C@H](C)NC(=O)[C@H](CCSC)NC(=O)[C@H](CC(=O)O)NC(=O)[C@@H]1CCCN1C(=O)[C@H](CCCCN)NC(=O)[C@H](CC(=O)O)NC(=O)[C@H](CO)NC(C)=O)C(=O)N[C@@H](CCC(=O)O)C(=O)N[C@@H](CCCCN)C(=O)N[C@@H](Cc1ccccc1)C(=O)N[C@@H](CC(=O)O)C(=O)N[C@@H](CCCCN)C(=O)N[C@@H](CO)C(=O)N[C@@H](CCCCN)C(=O)N[C@@H](CC(C)C)C(=O)N[C@@H](CCCCN)C(=O)N[C@@H](CCCCN)C(=O)N[C@H](C(=O)N[C@@H](CCC(=O)O)C(=O)N[C@H](C(=O)N[C@@H](CCC(N)=O)C(=O)N[C@@H](CCC(=O)O)C(=O)N[C@@H](CCCCN)C(=O)N[C@@H](CC(N)=O)C(=O)N1CCC[C@H]1C(=O)N[C@@H](CC(C)C)C(=O)N1CCC[C@H]1C(=O)N[C@@H](CO)C(=O)N[C@@H](CCCCN)C(=O)N[C@@H](CCC(=O)O)C(=O)N[C@H](C(=O)N[C@H](C(=O)N[C@@H](CCC(=O)O)C(=O)N[C@@H](CCC(N)=O)C(=O)N[C@@H](CCC(=O)O)C(=O)N[C@@H](CCCCN)C(=O)N[C@@H](CCC(N)=O)C(=O)N[C@@H](C)C(=O)NCC(=O)N[C@@H](CCC(=O)O)C(=O)N[C@@H](CO)C(=O)O)[C@@H](C)CC)[C@@H](C)O)[C@@H](C)O)[C@@H](C)O [Ac-Tβ4, Acetyl-thymosin β4] | – | inhibition at 100 µM (read-out: M^pro inhibition (%)): 7.09%; IC50 against SARS-CoV-2 M^pro (six inhibitor concentrations 100 μM–97.65 nM): no inhibition |
| Ac-Tβ4_1-11: peptide metabolite of Ac-Tβ4, amino acids 1-11 (Ac-SDKPDMAEIEK; UniProt P62328 2-12, looked up, fragment) | 1.25 | – |
| Ac-SDKP | – | M^pro inhibition, in vitro screening of Ac-Tβ1-17 fragments (iterative N- and C-terminal fragments of Ac-Tβ1-17): less than 50% |
